Results as given in US20150175687A1.

Columns and labels:
[1] = target: recombinant mature myostatin (human) (UniProt O14793)
[2] = target: recombinant mature myostatin (human) (UniProt O14793); assay: BIAcore, myostatin immobilized

Sequence of recombinant mature myostatin (human) (O14793 267-375): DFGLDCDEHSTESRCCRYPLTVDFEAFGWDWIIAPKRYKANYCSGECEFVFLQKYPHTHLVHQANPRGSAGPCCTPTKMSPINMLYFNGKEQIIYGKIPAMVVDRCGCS

B1: recombinant human activin receptor IIB/Fc chimera (Fc fusion)
chain: SGRGEAETRECIYYNANWELERTNQSGLERCEGEQDKRLHCYASWRNSSGTIELVKKGCWLDDFNCYDRQECVATEENPQVYFCCCEGNFCNERFTHLPEAGGPEVTYEPPPTAPT
Binder B1 has an IC50 (nM), myostatin-induced luciferase, C2C12 pMARE-luc [1] of 83 nM and a Kd [2] of 7 nM.
